Results reported in the supplement of paper PMC7125110.
± gives the standard error. Variants at the floor of the assay were thinned out.

B1: glmS ribozyme (parent)
chain: AUAAAAGCGCCAGAACUACAGAAAUGUAGUUGACGAGGAGGAGGUUUAUCGAAUUUUCGGCGGAUGCCUCCAAA

What was measured:
Details in all cases: with glucosamine-6-phosphate
glucosamine-6-phosphate [1] = variants of: B1; assay: self-cleavage kobs at 160 uM GlcN6P; higher = faster cleavage; RNA array
Procedure, shortened: (§1)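 Ribozyme variants carrying barcodes were transcribed in situ on sequenced MiSeq chips by E. coli RNA polymerase and tracked at 37 °C with a hybridised Cy3 probe. They were exposed to 40 μM to 10 mM glucosamine-6-phosphate in HEPES/KCl/Mg(OAc)2 buffer. kobs came from exponential decay fits of normalised per-tile medians, and kcat and KM from weighted Michaelis–Menten fits.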

glucosamine-6-phosphate [2] = variants of: B1; assay: self-cleavage kobs at 640 uM GlcN6P; higher = faster cleavage; RNA array
Procedure, shortened: as §1

glucosamine-6-phosphate [3] = variants of: B1; assay: self-cleavage kobs at 2500 uM GlcN6P; higher = faster cleavage; RNA array
Procedure, shortened: as §1

glucosamine-6-phosphate [4] = variants of: B1; assay: self-cleavage kobs at 10000 uM GlcN6P; higher = faster cleavage; RNA array
Procedure, shortened: as §1

Variant | self-cleavage kobs at 160 uM GlcN6P (glucosamine-6-phosphate [1]) [s⁻¹] | self-cleavage kobs at 640 uM GlcN6P (glucosamine-6-phosphate [2]) [s⁻¹] | self-cleavage kobs at 2500 uM GlcN6P (glucosamine-6-phosphate [3]) [s⁻¹] | self-cleavage kobs at 10000 uM GlcN6P (glucosamine-6-phosphate [4]) [s⁻¹]
C10G G40A C70A | < 1e-05 | < 1e-05 | < 1e-05 | < 1e-05
G7C U47A | < 1e-05 | < 1e-05 |  | < 1e-05
G9A C58A | < 1e-05 | < 1e-05 | < 1e-05 | 
A6U G37C C71U | < 1e-05 |  |  | 
G7U G41C A52G | < 1e-05 | < 1e-05 | < 1e-05 | < 1e-05
A6U G7U G35U U54A | < 1e-05 | < 1e-05 | < 1e-05 | 
C10G G32C A48U C61G | < 1e-05 | < 1e-05 |  | 
G9U G29C | < 1e-05 | < 1e-05 | < 1e-05 | < 1e-05
C10A C34A G37A U46C C67G | < 1e-05 |  |  | 
G7A C8A U49G | < 1e-05 |  | < 1e-05 | < 1e-05
G7U G38C C50A | < 1e-05 | < 1e-05 |  | 
G7U C10U G35A C68G | 0.000125 ± 5.5e-05 |  |  | 0.000284 ± 0.00012
G9U G40U U46G G62C | < 1e-05 | < 1e-05 | < 1e-05 | 
G9C G38C | < 1e-05 |  |  | 
A6U G43C U57G C67U | < 1e-05 |  | < 1e-05 | < 1e-05
G9C C10U G41A G43U | < 1e-05 | < 1e-05 |  | 
C10G U31A U49G | < 1e-05 |  |  | 
C8A G59A | < 1e-05 | < 1e-05 | < 1e-05 | < 1e-05
G7U G40U | < 1e-05 | < 1e-05 | < 1e-05 | < 1e-05
G9A C50U G51U A52U | < 1e-05 |  |  | 
G9A C61G | < 1e-05 | < 1e-05 |  | 
C10G C34G G38A U47A | < 1e-05 |  |  | 
C8A A42U | < 1e-05 | < 1e-05 |  | 
C8U C16G G51U | < 1e-05 | < 1e-05 | < 1e-05 | 
G7C A14U C16G U30A U56A C67G | < 1e-05 | < 1e-05 |  | 

Variant | self-cleavage kobs at 160 uM GlcN6P (glucosamine-6-phosphate [1]) [s⁻¹] | self-cleavage kobs at 640 uM GlcN6P (glucosamine-6-phosphate [2]) [s⁻¹] | self-cleavage kobs at 2500 uM GlcN6P (glucosamine-6-phosphate [3]) [s⁻¹] | self-cleavage kobs at 10000 uM GlcN6P (glucosamine-6-phosphate [4]) [s⁻¹]
G7U G43U C68U | < 1e-05 | < 1e-05 | < 1e-05 | < 1e-05
G9U C68G | < 1e-05 |  | < 1e-05 | < 1e-05
C8G G21U C34A A64G | < 1e-05 | < 1e-05 | < 1e-05 | 
G7C G29U A33G | < 1e-05 | < 1e-05 |  | 
G7U G35A G37C U46G U47A C70G | < 1e-05 | < 1e-05 | < 1e-05 | 
C8G G60A C61A | < 1e-05 |  | < 1e-05 | < 1e-05
G7A C50A G51A | < 1e-05 | < 1e-05 | < 1e-05 | 
C8G C70U | < 1e-05 | < 1e-05 | < 1e-05 | < 1e-05
C10G A12U U31A A33U G63A | < 1e-05 |  |  | 
A6G G43U U65C | < 1e-05 | < 1e-05 | < 1e-05 | 
C10A C50G U65G | 0.000143 ± 2.6e-05 | 0.000121 ± 4.2e-05 | 4.21e-05 ± 1.9e-05 | 
A6G A53C G63A A64G | < 1e-05 | < 1e-05 |  | 
G7A A14C A36C A64U | < 1e-05 | < 1e-05 | < 1e-05 | 
G7U A12G U45C U46G C71U | < 1e-05 |  | < 1e-05 | 
C8A A36C A42C G66C C67A | < 1e-05 |  | < 1e-05 | 
C10A A15G C34A G44A C67A C68A | < 1e-05 | < 1e-05 | < 1e-05 | 
A6G A36U G41A U47A C67G | < 1e-05 | < 1e-05 | < 1e-05 | 
C8G A14U G66U | < 1e-05 | < 1e-05 |  | 
C8G U46C A53C | < 1e-05 |  | < 1e-05 | 
G9A G43C G44C G62U | < 1e-05 | < 1e-05 | < 1e-05 | 
G7U G13C A39G | < 1e-05 | < 1e-05 | < 1e-05 | 
G9A G32C C67U | < 1e-05 | < 1e-05 |  | 
C8A A53U U55G | < 1e-05 | < 1e-05 |  | 
G7U G37A A48C | < 1e-05 | < 1e-05 | < 1e-05 | < 1e-05
G7A G32U C34U | < 1e-05 |  |  | 

Variant | self-cleavage kobs at 160 uM GlcN6P (glucosamine-6-phosphate [1]) [s⁻¹] | self-cleavage kobs at 640 uM GlcN6P (glucosamine-6-phosphate [2]) [s⁻¹] | self-cleavage kobs at 2500 uM GlcN6P (glucosamine-6-phosphate [3]) [s⁻¹] | self-cleavage kobs at 10000 uM GlcN6P (glucosamine-6-phosphate [4]) [s⁻¹]
A6G C16U A39C | < 1e-05 |  |  | 6.06e-05 ± 9e-06
G9U C16G G32U G38A A42G | < 1e-05 |  |  | 
A6C G35C G41A G62A | < 1e-05 | < 1e-05 |  | 
G9U G13C A42U | < 1e-05 | < 1e-05 | < 1e-05 | 
A6G G7A G43C | < 1e-05 | < 1e-05 | < 1e-05 | < 1e-05
C10A G41C U46G C68U | < 1e-05 | < 1e-05 | < 1e-05 | 
C10A C34U C50G G62U | 0.00045 ± 0.00013 | 0.000144 ± 4.8e-05 | 8.51e-05 ± 2.1e-05 | 
G7U A12U U45G | < 1e-05 | < 1e-05 | < 1e-05 | 
A6U C34A G63C | < 1e-05 | < 1e-05 | < 1e-05 | 
C8A A53U U55C C58U U69C | < 1e-05 |  |  | 
G9U G38A | < 1e-05 | < 1e-05 |  | 
G7A A33C A42C A48C | < 1e-05 |  | < 1e-05 | 
C8U A33G G37U G43C U54A U56C C67U | < 1e-05 | < 1e-05 | < 1e-05 | 
A6U C10U | < 1e-05 |  | < 1e-05 | 
C10G G32C A52U | < 1e-05 | < 1e-05 | < 1e-05 | 
G9A U46G U57A | < 1e-05 | < 1e-05 | < 1e-05 | 
C8A C10G C34A | < 1e-05 | < 1e-05 | < 1e-05 | 
G7U U49G | < 1e-05 | < 1e-05 | < 1e-05 | < 1e-05
C8A C11A | < 1e-05 | < 1e-05 |  | < 1e-05
G9C G32U A39U G41U | < 1e-05 | < 1e-05 | < 1e-05 | 
C8U A33C C71G | < 1e-05 |  |  | 
C8U C50G G63U | 0.000108 ± 2.8e-05 |  | 5.35e-05 ± 2.6e-05 | 
C10A U56C | < 1e-05 | < 1e-05 | < 1e-05 | 
G7A A36G | < 1e-05 | < 1e-05 | < 1e-05 | 
C10A U30A | < 1e-05 | < 1e-05 | < 1e-05 | < 1e-05

Variant | self-cleavage kobs at 160 uM GlcN6P (glucosamine-6-phosphate [1]) [s⁻¹] | self-cleavage kobs at 640 uM GlcN6P (glucosamine-6-phosphate [2]) [s⁻¹] | self-cleavage kobs at 2500 uM GlcN6P (glucosamine-6-phosphate [3]) [s⁻¹] | self-cleavage kobs at 10000 uM GlcN6P (glucosamine-6-phosphate [4]) [s⁻¹]
A6C G38C | < 1e-05 | < 1e-05 |  | 
G7C C10G | < 1e-05 | < 1e-05 | < 1e-05 | 
C8A A39G A52U | < 1e-05 | < 1e-05 | < 1e-05 | 
C10A U30G A48U | < 1e-05 | < 1e-05 | < 1e-05 | < 1e-05
G7U A36U C71A | < 1e-05 |  |  | 
G9C A14G G59U | < 1e-05 |  |  | 
C8U U56C | < 1e-05 | < 1e-05 | < 1e-05 | < 1e-05
G7U U30G C34G | < 1e-05 |  | < 1e-05 | < 1e-05
A6G A12C G40A | < 1e-05 | < 1e-05 | < 1e-05 | 
A6C C8A U31C | < 1e-05 |  | < 1e-05 | 
C8G G66A | < 1e-05 | < 1e-05 | < 1e-05 | 
G9C A39C | < 1e-05 | < 1e-05 | < 1e-05 | < 1e-05
G9C G29A G51U | < 1e-05 | < 1e-05 | < 1e-05 | 
A6U G35U A42C | < 1e-05 | < 1e-05 |  | 
G9A C34A G59C | < 1e-05 | < 1e-05 | < 1e-05 | 
G7A G13A G37C U46G | < 1e-05 |  | < 1e-05 | 
C8U U49C | < 1e-05 | < 1e-05 | < 1e-05 | < 1e-05
C8G G63A C70G | < 1e-05 | < 1e-05 | < 1e-05 | 
G9U C11U C34A G43U C61A C67G | < 1e-05 |  |  | 
C10A U54G C71G | 9.72e-05 ± 3.2e-05 | 0.000112 ± 5.5e-05 |  | 
C10U C50G C68U C70G | 0.000109 ± 4e-05 |  |  | 
G7A G29U | < 1e-05 | < 1e-05 |  | 
